Data reported in patent US20260176335A1 (TRUSTEES OF COLUMBIA UNIVERSITY IN THE CITY OF NEW YORK, published 2026).

What was measured:
[1] = target: T1, human serum amyloid A1 (SAA1) (human, UniProt P0DJI8 19-122); assay: Kd calculated from competitive binding curves (competitive peptide 0.625-80 nM against SAA1 at 150 ng/ml), NFκB-luciferase reporter cell readout
T1 construct: also called SAA1 antigen; SAA1 protein
T1 sequence (looked up): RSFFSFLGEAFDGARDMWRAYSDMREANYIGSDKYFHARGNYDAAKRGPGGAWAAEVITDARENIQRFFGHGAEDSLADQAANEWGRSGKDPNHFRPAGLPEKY
Description: Raw 264.7-NFκB-Luc cells were seeded at a density of 60,000 cells in 40 μl media/well in a 96-well plate. The plate was placed at 37° C. in a 5% CO₂ incubator overnight to allow cells to adhere. 5 μL of SAA1 antigen solution (150 ng/ml) was added to each well. 10 μL of the competitive antigen standard solution was added to the respective wells. 10 μL of the purified antibody (18A3-S1-F) solution was added to each well.
The plate was incubated at 37° C. in a 5% CO₂ incubator for 2 hours to allow binding between the antibody and antigens. 10 μL of the viability dye (i.e., the Cell Titer Fluor reagent; Promega) was added, and the plate was rocked for 5 minutes and incubated at 37° C. in a 5% CO₂ incubator for 30 minutes. Then […] reading was taken with 7-amino-4-trifluoromethyl-coumarin (AFC) (excitation 405 nm/emission […]). After 3 hours, 1:1 Bright Glo Luciferase reagent (Promega) was added, and the plate was rocked for 5 minutes in dark (covered with foil) before the reading was taken.
The dissociation constant (Kd) was calculated from the competitive binding curves (FIG. 4E). The lower the Kd value, the higher the binding affinity of the antibody.

[2] = target: T1, human serum amyloid A1 (SAA1); assay: cell-based or functional assay

B1: murine anti-SAA1 18A3 antibody (antibody, V domains shown)
VH: DVQLVESGGGLVQSGGSRKLSCAASGFTFSRFGMHWVRQAPEKGLEWVAYISRGSTKIYYADTVKGRFTISRDNPRNTLFLQMTSLRSEDTAMYYCARSLIYYDYDGFGYWGQGTLVTVSA
VL: DVLMTQTPLSLPLSLGDQASISCRSSQSIVHSNGNTYLEWYLQKPGQSPKLLIYKVSNRFSGVPDRFSGSGSGTDFTLKISRVEAEDLGVYYCFQGSHVPPTFGGGTKLEIK
notes: Murine hybridoma monoclonal antibody; Tested as hybridoma supernatant or as purified antibody from subclone 18A3-S1-F / 18A3-S1; also called 18A3-S1-F; 18A3-S1
Kd [1]: 0.94 to 1.12 nM | EC50 (half-maximal inhibition of SAA1-induced NFκβ activation, reporter assay) [2]: 2.55 nM
